Measurements from the DeepSol protein solubility set.

Experiment: soluble on expression in E. coli; label from the status in PepcDB or PDB records

| Sequence | soluble on expression in E. coli |
| --- | --- |
| MSLGEKMAIWRTKKPATKQKIVSDLQELGIKKGDTIIFHASMSKAHWICGGPVTVILALQELVGELGNIVMPAQTGQLSDPAKWENPPVPESWWKIIRRETPPFDPLVTPTRGMGVIAETFRTMPDVERSFHPYHSFCAWGKDKKQILANQPLAKSMGDESPLGKMYQLDAKIILFGVDNNNNTSLHLAEERSNAFPLIENQAAFLKNGEIIWEKYQEIDYNSEVFIALGRAYEKEHDFHPTTIIGAPTKIYDMRDLVDFGTKYFQTKNHEGHHHHHH | soluble |
| MSLGGDNAEYGYVEQTHPAFIAGSFTTEKNAKSRYYLLAKYEMTVLQYSALTQAECPAPSNKQRLPVVSLSWMQAMEAADKYNIWLRENAADKLPKEDGVAGFLRLPTEVEWEFAARGGLNVSTAEFRDLRYPMPEGVNAYEWFAGTQSANGQLQLSGLLKPNPLGLHDMLGNVDEMMFEPFRLNKLDRQHGQAGGYVVRGGDFRTAQGELRSSLRKERNYYDAKAAATSKTTGVRLALASSTLTSRERVSSIETSWKKLGTGSGDTSQGEDKSAVQALGTLASGVADEALKEKLKALENQLRASNQQQEETRDQAIRASLNLGAFLCTKMLDDGKYLDFLQKNYALNCSAAEQDASCPMRKGKLDEQKDRLHKLSRYYASSLVDSATLYGEPLLARQIPVMGEIISRNEQLKELKPYLQTHWVNQQAFLKTQKIDTDAWLNRCKAVQEGHHHHHH | not soluble |
| MSLGIRGLDLSDLFVSGASYKRLGSEEMMRSTFQKLDREIAAIFLGLSDGTISKAIEYSKVRTAFDHPLKDYSPIFDDLVSLKMEIDVLRFYLYGSGDEYSRALIKIKAKDLSLRATRVSLQTHGGYGYIHDFGIEKYYRDAMALSVYFGQDKYENMVLSDHIFGEAGGEGHHHHHH | not soluble |
| MSLGIYMRDDILDIITLTTDFGTNEGYVGAMKGRILNILKKYNKDAKIIDISHEIKPFNIYHGAYVLLTAIPYFPPSVHVAVIDPTVGSERKSIVIETKSGYYLVGPDNGLFTYVAEKLGIKRIIKIDEERYKPSSTFHGRDVYAVVGAEILINNGYDGEELDEMVKIDETKKRVIHIDRFGNIITNIKKDEVTFKYYDTIMIKIRHKNGIEKIIKCKFVKSYFEEKNNFICLINSEGFLEISKFMDNASKLLNVDYLDEIEIEGGSHHHHHH | soluble |
| MSLGLIRAQPKSGYYVSNHAIKQLASKTTPVPEQASTVVSISDMVFSILSSIKDPETVPLGSAFPWPDLFPLARLSRSLAHATRDMGPAAIVESLPPGNHDLRRQIARRYLMQGVEADVDNILITNGAFEALNLCLEAVTQPGDLVAIESPTFHGCLQALERLQLKAVEIPVDPVLGMDLDYLESVLEKCPVRACWSMTSFQNPMGVSMPAERKQVLVELLTRYRIPLIEDDVYGELYFGMQEHRPAKAYDSEGYVMHCSSFSKTLAPGYRIGWALLPKRFERKVERLKVITSLSTSTIAQAAIADFLQHGGYDRHLRRLRTKFELQQHQYLHLIARYFPAETQVTRPHGGYFLWVDLPERVDALVLFQRALEQGVSVAPGPIFSARHQCCNCIRINYSKPVDAEVEQAFKTLGRLMSSIEAEGHHHHHH | soluble |
| MSLGMASHPPIPILELADHIERLKANDNLKFSQEYESIDPGQQFTWEHSNLEVNKPKNRYANVIAYDHSRVLLSAIEGIPGSDYVNANYIDGYRKQNAYIATQGSLPETFGDFWRMIWEQRSATVVMMTKLEERSRVKCDQYWPSRGTETHGLVQVTLLDTVELATYCVRTFALYKNGSSEKREVRQFQFTAWPDHGVPEHPTPFLAFLRRVKTCNPPDAGPMVVHCSAGVGRTGCFIVIDAMLERIKHEKTVDIYGHVTLMRAQRNYMVQTEDQYIFIHDALLEAVTCGNTEVPARNLYAYIQKLTQIETGENVTGMELEFKRLEGHHHHHH | soluble |
| MSLGNAPLPFDVGGPFELTDQHGARRSQADPQGHGQLLFFGYATCPGICSAAMPMMADAVDRLAEAGIPVTPVMITVDPERDRPGEMNAPLARYHPDFIGLTGSEAELQAAYSAYSVERELAYVDPEYGPVYTHGAFIYLLDAKGEVLSLFPPILSSDRVVELARKYLGSEGEGHHHHHH | soluble |
| MSLGQDGFRLADYIREHVENGDKLVIRVSYHNTSLGFANPMREGVEKAKRELGVDAELIGPANGSAQEQVSELQTLISQQKVDGLAVSSASNDALKPVIAQAYNAGIPIISFNTNNPGSKQMAFVGQDLVQSGRFEAEQLRKELGDRKGKVVVFSVDTGAGWSNDRFSGFEAGMEGAEGIQIEGPINSGNEPRQAFNAVQNTMTANPDAIAIASLDCCSVDAAAKWVQQNGKKGEIIVVGFDVLPQTADFIRNGVIQFTISQNPVEQGYQSVKILNDFLKKNKPLRDVNTGTKLVDKSNIDEVPLEEGHHHHHH | soluble |
| MSLGQEEAGKLLDSLAEPSKKAYRINSLKEGAVVYPQEEAVPGIPNAYYGEVSGKDPEWTAGLVYSQDPAAMFPAQAIPVKPGDKVLDLCAAPGGKSTALAQKLQGEGLLVANEISPSRAKILRENLERWGVSNAVVTNCDSFALSARFPGFFDAILVDAPCSGEGMFRKSEDAIKYWSQENVDLCADRQREILTEAVKMLKPGGYLLYSTCTFSPEEDEEIVSWLLDEYGFKLLPIAAEKAAPGRPEWGNGDASLANCARFWPQDGVGEGQFVASLQKAAGEESFAAEAGEVFSPVRKNKDKKKKGKGKNKGNRSSLERPSKEESCYISEAIAGFNWPESLASWPSQMLKSQDHVFVPALEPEQLKGIKVLSNGLELGILKKKRFEPSHQLAEVLGQVDQERVVDLTEEEYDHYLHGESLQVNSSLKGFVLVSCRGMIFSFGKLSGKGQLKNYYPKGLRQKGIITITTDPNSSSVDKLAAALEHHHHHH | soluble |
| MSLGRFVRHALITAGTKGLGKQVTEKLLAKGYSVTVTYHSDTTAMETMKETYKDVEERLQFVQADVTKKEDLHKIVEEAMSHFGKIDFLINNAGPYVFERKKLVDYEEDEWNEMIQGNLTAVFHLLKLVVPVMRKQNFGRIINYGFQGADSAPGWIYRSAFAAAKVGLVSLTKTVAYEEAEYGITANMVCPGDIIGEMKEATIQEARQLKEHNTPIGRSGTGEDIARTISFLCEDDSDMITGTIIEVTGAVDVIHREGHHHHHH | soluble |
| MSLGRIGLRKLLQRIGIVAESMTPLATDPVEVTQLLDARWYDERLRALADELGRDPDSVRAEAAGYLREMAASLDERAVQAWRGFSRWLMRAYDVLVDEDQITQLRKLDRKATLAFAFSHRSYLDGMLLPEAILANRLSPALTFGGANLNFFPMGAWAKRTGAIFIRRQTKDIPVYRFVLRAYAAQLVQNHVNLTWSIEGGRTRTGKLRPPVFGILRYITDAVDEIDGPEVYLVPTSIVYDQLHEVEAMTTEAYGAVKRPEDLRFLVRLARQQGERLGRAYLDFGEPLPLRKRLQEMRADKSGTGSEIERIALDVEHRINRATPVTPTAVVSLALLGADRSLSISEVLATVRPLASYIAARNWAVAGAADLTNRSTIRWTLHQMVASGVVSVYDAGTEAVWGIGEDQHLVAAFYRNTAIHILVDRAVAELALLAAAETTTNGSVSPATVRDEALSLRDLLKFEFLFSGRAQFEKDLANEVLLIGSVVDTSKPAAAADVWRLLESADVLLAHLVLRPFLDAYHIVADRLAAHEDDSFDEEGFLAECLQVGKQWELQRNIASAESRSMELFKTALRLARHRELVDGADATDIAKRRQQFADEIATATRRVNTIAELARRQEGHHHHHH | soluble |
| MSLGSIKDNLSEIRNKIDKAAKKVDRDSKEITLLAVTKTVDVDLVNEAMREGITSVGENKPQELARKYDIIGDKLNWHLIGTLQTNKVKYIIDKVCMIHSLDRIALCEEIQKRAEQINREIDCLVQVNISKEESKHGLDREEVVDFVKEVSEKYKNIKIKGLMTMAPFIEDEDEIRGVFKGLKDLSKQIKELNIPNVGMDVLSMGMSHDYEIAIEEGATIVRVGTSIFGERNYNKEGHHHHHH | soluble |
| MSLGSVFRHIEGGMLFPQGSVTCIGAFDGLHLGHRALVRHALQRATALHLPTVALSFEPLPREYFASTTPPPRLTLTRAKIQGLHRFGADSVGLLRFDSRLASMSPQTFVERVLLGRLGVREVLIGPQFRFGHQRSGDIALLQRLGLEHGFTATEIPPLHLNNERISATKIRALLAAGDFAHAAELLGRPYMIGGRVVRGQQLGSTLGYPTANLRFPHPIALSGIYATWVHGIFEQPWPSVSSFGTRPTVAGVEPLLEVHLFDFHSDLYGRRIDVEFIAKLRDEETFPDLHTMTTQIHRDAQQARHILSEHRLRAEGHHHHHH | not soluble |
| MSLGTLWWNGTFFTMVHEGDQVEAVFTEDGKIVAIGTAEELRQRYSTRINQEMNCDGAYVYPGFVDSHLHMIGHGEKLLRLDLSTVMNAEDMREKLMERVALTEEGDWVTAEGWNENNFPDQKIFHRNELDEIAPNHPMILTRVCRHAILVNSKALQLAGISKDTTDPPGGRIVRDELGEPTGYLLDTAQELVKRVAPSVSAAYLERALAAAVDDMVAKGLVGGHTEDLGYYLGFNQTFATFQRVIDGNTRRFRAHLLVHHEVIDDMIKAGYCKGPVGEWLEFGAMKIFADGAFGGRTALLSEPYCDAPTTSGVAIHTQEQLTNLIKKARQYKLPVAIHTIGDEALRMAITSIEAHPVTEGRDRLIHTQVTPPSLVERMKKLKVILDIQPAFVPADFPWVEERLGNERLSYSFAWKTLLRSGMALAGGSDAPIEEVDPLYGIYAAVARKKPTDQHEGYLPEEKLTRYEALQLYTTGSAYAIEREHERGNIRPGYVADFTMLNRNLFTCREEELLTTRVEKTVIGEAIVFQAKGIITITTDPNSSSVDKLAAALEHHHHHH | soluble |
| MSLGYKQIRDVSVLCDFAANCTLSLNPGTGENAPGIGLYRSSKADSIPELRLSFSEQMPKTGKLEILVDGKPELDTNIAALKVRNNELVYVDEAGVAKLIGAMKNGQKLQLKLADKVSGYSLSGFVGGLIYLDEQQARDGTVAALQVKGTKPAPAAPDITLIETVEQIPEGIRKDFSDDAATCGGASPESFRLAGGFVTKIADGLNLVGLPCGAPGAYNQPYVFYSRYENRIVPVSLPVISDDGPTTTDSAWNIDWNNRTRTLTGFFKGRGIGDCGTYDVWKAVDSGEGRVSFVLKEERAKGDCDGNYAGGPQNWPASWPPKTKEGHHHHHH | soluble |
| MSLHDYCLPCPTSLSGIAEVNPMSKPLVRWPINPLRTAVIVVDMQKVFCEPTGALYVKSTADIVQPIQKLLQAARAAQVMVIYLRHIVRGDGSDTGRMRDLYPNVDQILARHDPDVEVIEALAPQSDDVIVDKLFYSGFHNTDLDTVLRARDVDTIIVCGTVTNVCCETTIRDGVHREYKVIALSDANAAMDYPDVGFGAVSAADVQRISLTTIAYEFGEVTTTAEVIRRIESAYPHGREGHHHHHH | soluble |
| MSLHLNVAQQLYNAEITAGSLLLKESRAIAQLLLQSADETAWRQAIAIDNILQKTSPASAKRMSSLIRKRLELMPRELWSMIADGTTEVAIQSLMAAAIKHSRLLGDFMLKVLQRHYREFNPKILSREWDSFLAECAHIDPAVASWSQSTRKKVGQVAYRILSEAGYLDNTRSLKLQPVLIAPEVSKFLNSHDEKYILKCMEIAHEEGHHHHHH | soluble |
| MSLHPADFIEKPPRFPVVDGHVDLVYDLMRRHPGIPFEQVADGQVTAQSLKKGGVWVLVAALYCADSHNGPASAAREMRRLHDYACRYLEWFALLRSPGEMAAALGGSGPPGIVFLVENADALLELDLDEVRRWGVRAVGLTHAGRNRLADGNGVTDPKGLTAAGKSLVRSIAGAGLILDVAHLAEPGFREVASLVTGPLISSHTGLRSFCDRPRNLSDPQVAEIARRGGVVGISAAPEMLVPGGTATLDDLFRQVDHVVQRHGPEAVGIGSDFGGFDDTAKGAEDHGGLPLLAERLLGAGYPAGAVGLIMGGNWCRIYGGIEGHHHHHH | soluble |
